Test results from patent US12661385B2, “Modulation of mTORCI activity and autophagy via CIB2-RHEB interaction” (University of Maryland, Baltimore, priority 2018, dated 2026).

Tests used:
mTORC1 = test: Phosphoprotein immunoblots of HEK293 cells overexpressing increasing amounts of CIB2, mTORC1 targets; type: cell-based
Procedure: (§1) FIG. 3. […] Note the stronger interaction between CIB2 and Rheb S20N variant as compared to Q64L variant (GDP vs GTP mimetic, respectively). c, CIB2 preferentially interacts with GDP-loaded Rheb is further confirmed by co-IP experiments of HA-GST-Rheb immobilized on […] and loaded with either GDP or GTPγS, followed by incubation with tdTomato-CIB2 lysate. d, Proposed model of CIB2 function in retinal sensory cells. […] Loss of CIB2 results in reduced autophagy and exacerbated mTORC1 signaling, thus leading to RPE pathology and secondary PR dysfunction. e, f Immunoblots from RPE/choroid lysates from dry AMD or control age-matched donors indicate reduced CIB2 expression, overactive mTORC1 and reduced autophagy, quantified in panel f. Unpaired two-tailed 1 test was used to determine statistical significance. p value of <0.05 (*), <0.01 (**), and <0.001 (***). Please note that one control sample (ψ) is outliner and is highly variant from the rest, Re-quantification, omitting the highly variant control sample, is shown in FIG. 15. g.
(§2) mTORC1 integrates various metabolic and amino acid signals through its nutrient-sensing arm and growth signals, which converge on the small GTPase Rheb, via the TSC complex (Wolfson et al., Cell Metabolism 26, 301-309 (2017)). We first tested if CIB2 is a specific negative regulator of mTORC1 and/or mTORC2. We used HEK293 cells, because the mTORC1 signaling pathway is well-established in this cell line, and to expand CIB2 functions beyond the RPE.
80% confluent HEK293 cells in 10-cm dishes were transfected for co-IP experiments with 10 μg of indicated plasmid/s using the polyethylenimine (PEI) method (3:1::PEI:DNA). 2 plates per condition were used. 36 hr later the plates were chilled on ice, washed once with ice-cold PBS, and cells collected in ice-cold PBS and centrifuged for 2 min at 1500 RPM at 4° C. Cell pellet was then lysed in IP buffer (0.3% CHAPS, 40 mM HEPES, 2.5 mM MgCl2, 1× Protease inhibitors, 1 mM Na orthovanadate, 10 mM Na glycerophosphate, 10 mM NaF) on ice for 20 min, followed by centrifuging at full speed for 20 min at 4° C. […]

RPE-J cells = test: In vitro pulse-chase phagocytosis assay with opsin immunoblotting; type: cell-based, rat; conditions: CIB2 overexpression vs control, chase 6 h
From the text: FIG. 12. CIB2 mutant mice have less autophagy/lysosomal proteins, and overexpression of CIB2. in vitro, is sufficient to boost levels of autophagy/lysosomal proteins and clearance of opsin. a. […] Pro-cathepsin D levels were quantified from non-saturated exposures. c. Representative immunoblots for indicated autophagy/lysosomal proteins from RPE-J cells transiently transfected with GFP or CIB2-IRES-GFP. Endogenous CIB2 is observable in long exposure immunoblot, while transiently overexpressed CIB2 is readily observable in short exposure immunoblot. d. Quantification for immunoblots shown in (c). n=5 (LAMP-1) or 4 (ATG5-ATG12) independent transfection experiments. e, Schematic of the pulse-chase phagocytosis assay (left panel)—also see Examples below. […]
Complementary to the findings of Cib2 mutant mice, over-expressing CIB2 in RPE-J cells increased LAMP-1 and ATG5-ATG12 complex proteins levels (FIG. 12c-d). […] To test this idea, we assessed LC3-II flux. LC3-I is a cytosolic protein which when lipidated with a phosphatidylethanolamine adduct (LC3-II form) localizes to the growing auto/phagosome membrane, and thus can be used as a reliable readout for the dynamic autophagic process (Valapala et al., Autophagy 10, 480-496 (2014); Kim et al., Noncanonical Autophagy Promotes the Visual Cycle. Cell 154, 365-376 (2013); Klionsky et al., Autophagy 12, 1-222 (2016)). […]

mTORC2 = test: Phosphoprotein immunoblots of HEK293 cells overexpressing increasing amounts of CIB2, mTORC2 target; type: cell-based
Procedure: as §1
as §2, with “We used HEK293 cells, because the mTORC1 signaling pathway is well-established in this cell line, and to expand CIB2 functions beyond the RPE.” left out

B1: CIB2: calcium and integrin binding protein 2, over-expressed in cells from plasmid constructs; SEQ ID NO:1 (human), SEQ ID NO:2 (mouse) (protein)
chain: MGNKQTIFTEEQLDNYQDCTFFNKKDILKLHARFYELAPNLVPMDYRKSPIVHVPMSLIIQMPELRENPFKERIVEAFSEDGEGNLTFNDFVDMFSVLCESAPRELKANYAFKIYDFNTDNFICKEDLEMTLARLTKSELEEDEVVLVCDKVIEEADLDGDGKLGFADFEDMIAKAPDFLSTFHIRI
modifications: left off: large carriers
For B1, the “Phosphorylation of 4E-BP1” value (mTORC1) was “decreasing phosphorylation”, the “Phosphorylation of S6K1” value (mTORC1) was “decreasing phosphorylation” and the “Phosphorylation of ULK1” value (mTORC1) was “decreasing phosphorylation”. For the same molecule, the “Opsin 6 hr later (digestion phase)” value (RPE-J cells) was “less opsin” and the “mTORC2-mediated phosphorylation of AKT” value (mTORC2) was “no changes”.
